Reference: US9644034B2, “Anti-RSPO2 antibodies and uses thereof” (OncoMed Pharmaceuticals, Inc., priority 2011, dated 2017)
Each block holds one molecule with its values, some of them ahead of it.

Assays:
[1] = tested on: PN7 tumors; test: Serial transplantation of cells from treated PN7 tumors (tumorigenicity); type: in vivo, NOD-SCID mice; settings: 90 cells injected, 40 days growth with no treatment; vs control antibody
Experimental: The PN7 tumors described above were processed to yield single cell suspensions. Mouse cells were depleted from the cell mixtures using biotinylated anti-H2K^d and anti-CD45 antibodies and streptavidin-conjugated magnetic beads. The remaining human tumor cells were serially transplanted into a new cohort of mice. 90 tumor cells from each treatment group were injected into the flanks of NOD-SCID mice (n=10 mice per group). Tumors were allowed to grow for 40 days with no treatment and tumor volumes were measured with electronic calipers.

[2] = tested on: PN31 pancreatic tumor cells; test: PN31 pancreatic tumor xenograft growth in NOD/SCID mice; type: in vivo; settings: vs control; antibodies 15 mg/kg once a week, gemcitabine once a week, intraperitoneal
Experimental: Dissociated PN31 pancreatic tumor cells (1×10^5cells) were injected subcutaneously into the flanks of 6-8 week old NOD/SCID mice. Tumors were allowed to grow for 61 days until they reached an average volume of 120 mm^3. The mice were randomized (n=10 per group) and treated with anti-RSPO1 antibody 89M5, anti-RSPO2 antibody 130M23, gemcitabine, a combination of 89M5 and gemcitabine, a combination of 130M23 and gemcitabine, or control antibody 1B7.11. Antibodies were dosed at 15 mg/kg once a week, and gemcitabine was dosed at […] once a week. Administration of the antibodies and gemcitabine was performed via injection into the intraperitoneal cavity. Tumor growth was monitored and tumor volumes were measured with electronic calipers at specific time points. Data are expressed as mean±S.E.M.

[3] = tested on: RSPO; test: FACS RSPO binding activity of conditioned media from HEK-293 cells cotransfected with candidate humanized chains; settings: conditioned media of cotransfected HEK-293 cells
Experimental: The functionality of each candidate variant humanized heavy chain and light chain was tested by cotransfection into mammalian cells. Each candidate humanized heavy chain described above was cotransfected into HEK-293 cells with the murine light chain cDNA, and conditioned media was assayed by FACS for RSPO binding activity. […] The 89M5-H2 humanized heavy chain was cotransfected into HEK-293 cells with each of the candidate humanized light chains, and conditioned media was again assayed for antigen binding by FACS. […] The 130M23-H1 humanized heavy chain was cotransfected into HEK-293 cells with each of the candidate humanized light chains, and conditioned media was again assayed for antigen binding by FACS.

[4] = tested on: PN7 pancreatic tumor cells; test: PN7 pancreatic tumor xenograft growth in NOD/SCID mice; type: in vivo; settings: vs control antibody; 130M23 10 mg/kg, 18R5 20 mg/kg, gemcitabine once a week, intraperitoneal
Experimental: Dissociated PN7 pancreatic tumor cells (1×10^5cells) were injected subcutaneously into the flanks of 6-8 week old NOD/SCID mice. Tumors were allowed to grow for 25 days until they reached an average volume of 130 mm^3. The mice were randomized (n=10 per group) and treated with anti-RSPO2 antibody 130M23, anti-FZD antibody 18R5, gemcitabine, a combination of 130M23 and gemcitabine, a combination of 18R5 and gemcitabine, a combination of 130M23 and 18R5, a combination of 130M23, 18R5 and gemcitabine, or control antibody 1B7.11. Anti-RSPO2 antibody 130M23 was dosed at 10 mg/kg once a week, anti-FZD antibody 18R5 was dosed at 20 mg/kg once a week, and gemcitabine was dosed at […] once a week. Administration of the antibodies and gemcitabine was performed via injection into the intraperitoneal cavity. Tumor growth was monitored and tumor volumes were measured with electronic calipers at specific time points. Data are expressed as mean±S.E.M. A parallel set of experiments included mice treated with a FZD8-Fc soluble receptor (10 mg/kg) in combination with gemcitabine and FZD8-Fc in combination with 130M23 and gemcitabine.

[5] = molecular target: T1, binding of RSPO1 to LGR5 (Homo sapiens, UniProt Q2MKA7); test: FACS: blocking of soluble RSPO1-Fc binding to LGR5 on HEK-293 cells; settings: RSPO1-Fc 10 μg/ml, antibodies 10 μg/ml
T1 construct: full-length human RSPO1, RSPO2, RSPO3 and RSPO4 were ligated in-frame to a human Fc region; made in house; host or cells: RSPO1-Fc: insect cells (baculovirus); LGR5 construct: transiently transfected HEK-293
T1 sequence (Q2MKA7 21-263): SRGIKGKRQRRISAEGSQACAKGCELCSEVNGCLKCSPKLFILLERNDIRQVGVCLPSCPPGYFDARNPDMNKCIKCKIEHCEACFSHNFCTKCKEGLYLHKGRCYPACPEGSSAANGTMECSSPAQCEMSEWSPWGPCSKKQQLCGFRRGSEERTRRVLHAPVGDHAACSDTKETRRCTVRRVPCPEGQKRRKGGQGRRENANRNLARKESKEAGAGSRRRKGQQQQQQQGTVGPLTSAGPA
Experimental: HEK-293 cells were transiently transfected with the FLAG-LGR5-CD4TM-GFP construct (previously described in Example 2). After 48 hours, transfected cells were suspended in ice cold PBS containing 2% FBS and heparin and incubated on ice in the presence of RSPO1-Fc protein (10 μg/ml) and antibodies 89M2, 89M4, 89M5, 89M7, 89M19 or 89M25 (10 μg/ml). A second incubation with 100 μl PE-conjugated anti-human Fc secondary antibody was performed to detect cells bound by the RSPO1-Fc fusion protein. The cells were analyzed on a FACSCalibur instrument (BD Biosciences, San Jose, Calif.) and the data was processed using FlowJo software.

[6] = tested on: RSPO1-induced β-catenin signaling; test: TOPflash luciferase assay in HEK-293 cells, Wnt3a plus human RSPO1; type: cell-based; settings: Wnt3a 5 ng/ml, RSPO1 10 ng/ml; antibodies 10 to 0.625 μg/ml
Experimental: HEK-293 cells were transfected with a 6×TCF-luciferase reporter vector (TOPflash, Millipore, Billerica, Mass.). After 24-48 hrs, the transfected HEK-293 cells were incubated with a combination of Wnt3a (5 ng/ml) and human RSPO1 (10 ng/ml, R&D BioSystems) in the presence of anti-RSPO1 antibodies 89M2, 89M4, 89M5, 89M7, 89M19, and 89M25, or 2 irrelevant control antibodies 254M14 and 254M26 (2-fold dilutions at 10 μg/ml to 0.625 μg/ml). The cells were incubated for 16 hours and luciferase activity was measured using Steady-Glo® Luciferase Assay System according to the manufacturer's instructions (Promega, Madison, Wis.).

[7] = molecular target: T2, human RSPO1 (Homo sapiens, UniProt Q2MKA7); test: FACS screening of hybridoma supernatants on HEK-293 cells expressing FLAG-RSPO1furin-CD4TM-GFP; type: binding
T2 construct: followed by the two furin-like domains of RSPO1 (aa 34-135); expressed in transfected cells; host or cells: HEK-293
T2 sequence (Q2MKA7 34-135): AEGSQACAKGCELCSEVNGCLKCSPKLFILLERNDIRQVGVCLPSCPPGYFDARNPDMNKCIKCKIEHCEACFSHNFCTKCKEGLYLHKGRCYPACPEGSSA
Text: Antibodies were generated against recombinant human RSPO1 protein amino acids 31-263 (R&D Systems, Minneapolis, Minn.). Mice (n=3) were immunized with RSPO1 protein using standard techniques. Sera from individual mice were screened against RSPO1 approximately 70 days after initial immunization using FACS analysis. The animal with the highest antibody titer was selected for final antigen boost after which spleen cells were isolated for hybridoma production. SP2/0 cells were used as fusion partners for the mouse spleen cells. Hybridoma cells were plated at 1 cell per well in 96 well plates, and the supernatants were screened against human RSPO1 by FACS analysis.
For FACS screening of anti-RSPO1 antibodies a chimeric fusion protein enabling cell surface expression of the N-terminal furin-like domains of human RSPO1 was constructed.
HEK-293 cells were transfected with FLAG-RSPOlfurin-CD4TM-GFP. After 48 hours, transfected cells were suspended in ice cold PBS containing 2% FBS and heparin and incubated on ice in the presence of 50 μl of hybridoma supernatants for 30 minutes. A second incubation with 100 μl PE-conjugated […] secondary antibody was performed to detect cells bound by antibody. Cells were incubated with an anti-FLAG antibody (Sigma-Aldrich, St. Louis, Mo.) as a positive control and an anti-PE antibody as a negative control. The cells were analyzed on a FACSCalibur instrument (BD Biosciences, San Jose, Calif.) and the data was processed using FlowJo software.

Molecule: Nc1ccn([C@@H]2O[C@H](CO)[C@@H](O)C2(F)F)c(=O)n1 [gemcitabine, reference compound]
tumorigenicity of cells isolated from treated mice [1]: decrease in tumorigenicity
reduction in tumor growth [2]: 49%

B1: 130M23-H1: humanized 130M23 heavy chain variant (SEQ ID NO:70) (antibody)
heavy: EVQLVESGGGLVKPGGSLRLSCAASGFTFSSYAMSWVRQAPGKGLEWVSSISSGGSTYYPDSVKGRFTISRDNAKNSLYLQMNSLRAEDTAVYYCARGGDPGVYNGDYEDAMDYWGQGTTVTVSSASTKGPSVFPLAPCSRSTSESTAALGCLVKDYFPEPVTVSWNSGALTSGVHTFPAVLQSSGLYSLSSVVTVPSSNFGTQTYTCNVDHKPSNTKVDKTVERKCCVECPPCPAPPVAGPSVFLFPPKPKDTLMISRTPEVTCVVVDVSHEDPEVQFNWYVDGVEVHNAKTKPREEQFNSTFRVVSVLTVVHQDWLNGKEYKCKVSNKGLPAPIEKTISKTKGQPREPQVYTLPPSREEMTKNQVSLTCLVKGFYPSDIAVEWESNGQPENNYKTTPPMLDSDGSFFLYSKLTVDKSRWQQGNVFSCSVMHEALHNHYTQKSLSLSPGK
modifications: h130M23-H1L2 Heavy chain amino acid sequence
binding by FACS among candidate humanized chain variants [3]: most robust binding

B2: 18R5: anti-FZD antibody, Wnt pathway inhibitor (antibody, chains of the INN, looked up, V domains shown)
VH: EVQLVESGGGLVQPGGSLRLSCAASGFTFSHYTLSWVRQAPGKGLEWVSVISGDGSYTYYADSVKGRFTISSDNSKNTLYLQMNSLRAEDTAVYYCARNFIKYVFANWGQGTLVTVSS
VL: DIELTQPPSVSVAPGQTARISCSGDNIGSFYVHWYQQKPGQAPVLVIYDKSNRPSGIPERFSGSNSGNTATLTISGTQAEDEADYYCQSYANTLSLVFGGGTKLTVL
tumorigenicity of cells isolated from treated mice [1]: greatly decreased tumorigenicity
reduction in tumor growth [4]: approximately 55%

blocking of binding of RSPO1 to LGR5 [5]: blocked
binding to RSPO1 (FACS) [7]: bound
B3: 89M2: anti-RSPO1 monoclonal antibody; same heavy and light chain variable regions as 89M5 (antibody, V domains shown)
VH: EVQLQQSGPELVKPGASVKISCKTSGYTFTGYTMHWVRQSHGKTLEWIGGINPNNGGTTYNQNFKGKATLTVEKSSTTAYLELRSLTSEDSALYYCARKEFSDGYYFFAYWGQGTLVTVSA
VL: DIVMTQSHKFMSTSVGDRVNITCKASQDVIFAVAWYQQKPGQSPKLLIYWASTRHTGVPDRFTGSVSGTDYTLTISSVQAEDLALYYCQQHYSTPWTFGGGTKLEIK
blocking of RSPO1-induced β-catenin signaling [6]: blocked

blocking of binding of RSPO1 to LGR5 [5]: blocked
binding to RSPO1 (FACS) [7]: bound
B4: 89M4: anti-RSPO1 monoclonal antibody; same heavy and light chain variable regions as 89M5 (antibody, V domains shown)
VH: EVQLQQSGPELVKPGASVKISCKTSGYTFTGYTMHWVRQSHGKTLEWIGGINPNNGGTTYNQNFKGKATLTVEKSSTTAYLELRSLTSEDSALYYCARKEFSDGYYFFAYWGQGTLVTVSA
VL: DIVMTQSHKFMSTSVGDRVNITCKASQDVIFAVAWYQQKPGQSPKLLIYWASTRHTGVPDRFTGSVSGTDYTLTISSVQAEDLALYYCQQHYSTPWTFGGGTKLEIK
blocking of RSPO1-induced β-catenin signaling [6]: blocked

B5: 89M5-H2: humanized 89M5 heavy chain variant (SEQ ID NO:68) (antibody)
heavy: QVQLVQSGAEVKKPGASVKVSCKTSGYTFTGYTMHWVRQAPGQRLEWMGGINPNNGGTTYNQNFKGRVTITRDTSASTAYMELSSLRSEDTAVYYCARKEFSDGYYFFAYWGQGTLVTVSSASTKGPSVFPLAPCSRSTSESTAALGCLVKDYFPEPVTVSWNSGALTSGVHTFPAVLQSSGLYSLSSVVTVPSSNFGTQTYTCNVDHKPSNTKVDKTVERKCCVECPPCPAPPVAGPSVFLFPPKPKDTLMISRTPEVTCVVVDVSHEDPEVQFNWYVDGVEVHNAKTKPREEQFNSTFRVVSVLTVVHQDWLNGKEYKCKVSNKGLPAPIEKTISKTKGQPREPQVYTLPPSREEMTKNQVSLTCLVKGFYPSDIAVEWESNGQPENNYKTTPPMLDSDGSFFLYSKLTVDKSRWQQGNVFSCSVMHEALHNHYTQKSLSLSPGK
modifications: h89M5-H2L2 Heavy chain amino acid sequence
binding by FACS among candidate humanized chain variants [3]: most robust binding

B6: 89M5-L2: humanized 89M5 light chain variant (SEQ ID NO:69) (protein)
light: DIQMTQSPSSLSASVGDRVTITCKASQDVIFAVAWYQQKPGKAPKLLIYWASTRHTGVPSRFSGSGSGTDYTLTISSLQPEDFATYYCQQHYSTPWTFGGGTKVEIKRTVAAPSVFIFPPSDEQLKSGTASVVCLLNNFYPREAKVQWKVDNALQSGNSQESVTEQDSKDSTYSLSNTLTLSKADYEKHKVYACEVTHQGLSSPVTKSFNRGEC
modifications: h89M5-H2L2 Light chain amino acid sequence
binding by FACS among candidate humanized chain variants [3]: most robust binding

B7: 130M23-L2: humanized 130M23 light chain variant (SEQ ID NO:71) (protein)
light: DIQMTQSPSSLSASVGDRVTITCKASQDVSSAVAWYQQKPGKAPKLLIYWASTRHTGVPSRFSGSGSGTDFTLTISSVQAEDFATYYCQQHYSTPWTFGQGTKVEIKRTVAAPSVFIFPPSDEQLKSGTASVVCLLNNFYPREAKVQWKVDNALQSGNSQESVTEQDSKDSTYSLSNTLTLSKADYEKHKVYACEVTHQGLSSPVTKSFNRGEC
modifications: h130M23-H1L2 Light chain amino acid sequence
binding by FACS among candidate humanized chain variants [3]: most robust binding
